Here are results for one molecule from US20190119345A1 (published 2019).

For the assay, the target named is T1, murine NKG2D on NK cells / splenocytes (mouse, UniProt O54709 1-232).
T1 construct: whole, on cells; also called NKG2D receptor
T1 sequence: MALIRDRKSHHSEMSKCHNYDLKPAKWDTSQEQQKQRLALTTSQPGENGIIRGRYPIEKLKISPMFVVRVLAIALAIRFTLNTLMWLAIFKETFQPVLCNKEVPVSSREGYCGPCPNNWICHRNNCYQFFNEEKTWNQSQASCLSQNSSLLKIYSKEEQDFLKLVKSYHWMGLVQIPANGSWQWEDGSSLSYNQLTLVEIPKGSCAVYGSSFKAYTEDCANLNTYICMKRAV
The experiment in a line: flow cytometry, fluorescently labeled construct on bulk splenocytes at 37° C. On the technique in general: Flow cytometry measures light scatter and fluorescence of single cells or particles in a stream.

B1: OMCP-mutIL2 (R38A, F42K, C125S IL2-OMCP construct) (other)
chain: HKLAFNFNLEINGSDTHSTVDVYLDDSQIITFDGKDIRPTIPFMIGDEIFLPFYKNVFSEFFSLFRRVPTSTPYEDLTYFYECDYTDNKSTFDQFYLYNGEEYTVKTQEATNKNMWLTTSEFRLKKWFDGEDCIMHLRSLVRKMEDSKRNTGGTGSSGSSDYKDDDDKHHHHHHHHGSSGSSAPTSSSTKKTQLQLEHLLLDLQMILNGINNYKNPKLTAMLTKKFYMPKKATELKHLQCLEEELKPLEEVLNLAQSKNFHLRPRDLISNINVIVLELKGSETTFMCEYADETATIVEFLNRWITFSQSIISTLT
notes: also called OMCP-mutant IL2; OMCP-IL2 construct
For B1, the binding result is on record as “binds”.
